Source: patent US8663642B2, “Anti-CD70 antibody-drug conjugates and their use for the treatment and prevention of cancer and immune disorders” (priority 2003, dated 2014)

Key:
CD70^− Jurkat cells = experiment: 3H-TdR proliferation assay, hematologic lines; format: cell-based, human; conditions: at concentrations as high as 2 μg/ml
Experimental: (§1) FIG. 5: Effects of anti-CD70 ADCs on the proliferation of transformed hematologic cell lines. A subset of the CD70^+ cell lines shown in FIG. 4 and the CD70^− Jurkat cell line were tested for their sensitivity toward 1F6 ADCs. Graded doses of the 1F6-vcMMAE, 1F6-vcAFP, or the corresponding non-binding control IgG (IgG) ADCs were added to cells at the initiation of culture. Cells were exposed to the ADCs continuously for a total of 96 hours. Proliferation was determined by pulsing with ^3H-TdR during the last 16 hours of incubation. The upper panels show the response of the WSU-NHL and Jurkat lines. The lower panel summaries the responses by the tested cell lines to 1F6-vcMMAE and 1F6-vcAFP in form of IC50s.
(§2) A subset of the CD70^+ hematologic lines listed in FIG. 4 was tested for sensitivity to the 1F6 ADCs. These lines were seeded at 5,000 cells per well in 96-well plates in quadruplicates in a total of 200 μl of culture medium containing graded doses of the ADCs as indicated in the FIG. 5 and the accompanying figure legend. Proliferation assays were carried out for 96 hours. Tritiated thymidine (^3H-TdR) incorporation during the last 16 hours of incubation was used to assess DNA synthesis. The responses of a CD70^+ B lymphoma cell line WSU-NHL and the CD70^− Jurkat cells are shown in the upper panels of FIG. 5. […] Proliferation inhibitory effects were apparent when the ADCs were used at concentrations higher than 0.005 μg/ml. […] On the other hand, proliferation of the CD70^− Jurkat acute T leukemia cell line was not affected by either 1F6-vcMMAE or 1F6-vcAFP at concentrations as high as 2 μg/ml. […] The responses of other CD70^+ cell lines tested are summarized in the lower panel of FIG. 5. […] Moreover, EBV-LCLs are phenotypically very similar to activated normal B cells.

WSU-NHL cells = experiment: 3H-TdR proliferation assay, hematologic lines; format: cell-based, human; conditions: 96 hours, 3H-TdR last 16 hours
Experimental: as §1, §2

Caki-1 cells = experiment: 3H-TdR proliferation assay, RCC lines; format: cell-based, human; conditions: Caki-1 cells
Caki-2 cells = experiment: 3H-TdR proliferation assay, RCC lines; format: cell-based, human
CD70^+ RCC lines [1] = experiment: 3H-TdR proliferation assay, panel of RCC lines; format: cell-based, human
CD70^− Hs 835.T cells = experiment: 3H-TdR proliferation assay, CD70-negative RCC line; format: cell-based, human; conditions: CD70^− Hs 835.T cells
[2] = test system: normal kidney epithelial lines RPTEC and HRCE; experiment: Proliferation/cytotoxicity on normal kidney epithelial lines; format: cell-based, human
[3] = test system: PBMCs stimulated with irradiated allogeneic CESS cells; experiment: Mixed lymphocyte reaction (3H-TdR); format: cell-based, human; conditions: MLR, 5-day culture
[4] = test system: CD70^+ CD8^+/Vβ17^+ T cells; experiment: In vitro deletion of M1 peptide-specific T cells (flow cytometry, viable counts); format: cell-based, human
Experimental: PBMCs from a normal HLA-A0201donor were stimulated with the M1 peptide for 5 days. 1F6 ADCs or control non-binding IgG (cIgG) ADCs were added to cells to a final concentration of 1 μg/ml. Total viable cell counts were conducted at 24, 48, and 76 hours post drug addition. Total numbers of CD8^+/Vβ17^+ for each culture condition are calculated (upper panel).
FIG. 19: Dose-response comparison of anti-CD70 ADCs on deletion of antigen-specific CD8^+/Vβ17^+ cells. PBMCs from a normal HLA-A0201donor were stimulated with the M1 peptide for 5 days. 1F6 ADCs or control non-binding IgG (cIgG) ADCs were given to cells to the specified final concentrations. The percentages of CD8^+/Vβ17^+ cells 4 days post ADC addition was determined by flow cytometry as in FIG. 17.
To examine CD70 expression on activated antigen-specific T cells, PBMCs from a normal donor expressing HLA-A0201 were stimulated with the M1 peptide. PBMCs were seeded at 2×10^6 cells/ml with 5 μg/ml of M1 peptide in AIMV medium supplemented with 5% human AB serum. IL-2 (Proleukin, Chiron) and IL-15 (R&D Systems, MN) were added to final concentrations of 20 IU/ml and 5 ng/ml, respectively, once every two days beginning on day 2 after culture initiation. The expansion of CD8^+/Vβ17^+ T cells and induction of CD70 on the CD8^+/Vβ17^+ was followed by three-color flow cytometry. Vβ17^+ T cells were identified by the anti-TCRVβ17 mAb clone E17.5F3 (Beckman Coulter, Miami, Fla.).
PBMCs from a normal donor expressing HLA-A0201 were stimulated with the M1 peptide as described in Example 11. On day 5, cells were harvested, washed, and re-seeded at 0.5-1×10^6 cells/ml (approximately 100,000 of CD8^+/Vβ17^+ T cells) in fresh AIMV medium supplemented with 5% human AB, 20 IU/ml of IL-2, and 5 ng/ml of IL-15. 1F6 or control non-binding IgG (cIgG) ADCs were added to some cultures to a final concentration of 1 μg/ml. Total viable cell counts were conducted 24, 48, and 76 hours after ADC addition. Two-color flow cytometry was conducted to determine the percentages of CD8^+/Vβ17^+ cells among the viable cells. The absolute number of CD8^+/Vβ17^+ T cells in each culture was then calculated. […] The effects of 1F6 ADCs on the CD8^+/Vβ17^− cells were also evaluated.
The potency of three 1F6 ADCs was then compared. HLA-A0201 PBMCs were stimulated with the M1 peptide and re-seeded as described for FIG. 18 with the various ADCs at the indicated concentrations (FIG. 19). The percent of CD8^+/Vβ17^+ T cells after a 96-hour incubation was determined.

[5] = test system: CD70-expressing multiple myeloma cells; experiment: Cytotoxic activity against multiple myeloma cell lines (panel); format: cell-based, human
Experimental: Cell surface CD70 expression was evaluated in a panel of multiple myeloma cell lines (Table 3). Copy number of CD70 molecules expressed by each cell line was determined by quantitative flow cytometry using the QIFIKit® (Dako, Carpinteria, Calif.). Response of these cells to anti-CD70 ADC-mediated cytotoxicity was determined.

[6] = test system: Hodgkin's disease cell lines; experiment: Cytotoxic activity against Hodgkin's disease cell lines (panel); format: cell-based, human
Experimental: Cell surface CD70 expression was also evaluated in panels of Hodgkin's disease (Table 4) and glioblastoma cell lines (Table 5). The copy number of CD70 molecules expressed by each cell line was determined by quantitative flow cytometry using the QIFIKit® (Dako, Carpinteria, Calif.). The response of these cells to anti-CD70 ADC-mediated cytotoxicity was determined.

Caki-1 tumors = experiment: Caki-1 subcutaneous xenograft model of RCC; format: in vivo, nude mice; conditions: Caki-1 xenograft, q4d×4
From the text: Tumors were initiated in nude mice by implanting tissue tumor blocks (30 mm^3 in size) containing Caki-1 cells. Treatment began when average tumor size within a treatment group was around 100 mm^3. In the upper panel, treatment for the IgG and 1F6 groups began 17 days post implantation (filled arrow), while treatment for the 1F6-vcAFP and IgG-vcAFP groups began 25 days post implantation (open arrow). Indicated doses of either unconjugated mAbs or their ADCs were given for one course on a q4d×4 schedule.
Using xenografts of the Caki-1 line in nude mice, the […] antitumor activity of 1F6-vcAFP was tested. To establish Caki-1 tumors, nude mice were injected subcutaneously with 5×10^6 Caki-1 cells in 0.2 ml PBS. […] Caki-1-containing tumors were excised from tumor bearing mice and tumor tissue blocks of approximately 30 mm^3 were prepared. Naive nude mice to be used for evaluating in vivo antitumor activity of anti-CD70 ADC were each implanted subcutaneously with one tumor block of 30 mm^3. […] Treatment was initiated when the average tumor size within a group was approximately 100 mm^3 (FIG. 12, arrows).

[7] = test system: tetanus toxoid-specific T cells; format: cell-based, human
CD70^+ RCC lines [8] = conditions: in 5 of 7 CD70^+ RCC lines tested
Experimental: To examine the responses of CD70^+ RCC lines to 1F6 ADCs, cells were seeded between 1,000 to 3,000 cells per well in 100 μl of medium. An additional 100 μl of culture medium containing graded doses of ADCs were added to the wells after cells were allowed to attached overnight. In addition to DNA synthesis, cell viability, as a reflection of the cytotoxic activities of ADCs, was also assayed by the reduction of alamarBlue™ (Biosource International, Camarillo, Calif.). The alamarBlue™ dye was added at a one to four dilution during the last 4 to 24 hours of the incubation. Dye reduction was assessed by fluorescence spectrometry using the excitation and emission wavelengths of 535 nm and 590 nm, respectively. For analysis, the amount of ^3H-TdR incorporated or the extent of alamarBlue™ reduction by the treated cells was compared to that of the untreated control cells.

Vβ17^− T cells = experiment: Anti-CD3 plus anti-CD28 re-stimulation assay of bystander T cells (3H-TdR); format: cell-based, human; conditions: Vβ17^− T cells from culture treated with 1 μg/ml, 96 hours, no exogenous IL-2
From the text: PBMCs from a normal HLA-A0201donor were stimulated with the M1 peptide for 5 days.

B1: 1F6-vcMMAE: anti-CD70 mAb 1F6 linked to monomethyl auristatin E by the valine-citrulline (vc) dipeptide linker (conjugate)
VH: QIQLVQSGPEVKKPGETVKISCKASGYTFTNYGMNWVKQAPGKGLKWMGWINTYTGEPTYADAFKGRFAFSLETSASTAYLQINNLKNEDTATYFCARDYGDYGMDYWGQGTSVTVSS
VL: DIVLTQSPASLAVSLGQRATISCRASKSVSTSGYSFMHWYQQKPGQPPKLLIYLASNLESGVPARFSGSGSGTDFTLNIHPVEEEDAATYYCQHSREVPWTFGGGTKLEIKR
modifications: non-natural residues
notes: anti-CD70 mAb 1F6 linked to monomethyl auristatin E by the valine-citrulline (vc) dipeptide linker
effect on proliferation of Jurkat cells (CD70^− Jurkat cells): not affected | effect on the proliferation of WSU-NHL cells (WSU-NHL cells): dose-dependent inhibitory effects | IC50, proliferation (Caki-1 cells): lower than 20 ng/ml | IC50, proliferation (Caki-2 cells): lower than 20 ng/ml | activity on proliferation (CD70^+ RCC lines [1]; other CD70^+ RCC lines (not Caki-1, Caki-2)): not active | activity on proliferation (CD70^− Hs 835.T cells): not active | activity on proliferation [2]: not active | effect on T cell proliferation [3]: substantially inhibited T cell proliferation | number of CD8^+/Vβ17^+ T cells ([4]; 1 μg/ml, 76 hours after ADC addition): approximately 400,000 | inhibition of CD8^+/Vβ17^+ T cell expansion ([4]; 96-hour incubation): dose-dependent inhibition | relative inhibitory activity ([4]; 96-hour incubation): weaker than both 1F6-vcAFP and 1F6-vcMMAF

B2: c1F6-vcMMAF4: chimeric 1F6 (c1F6)-vcMMAF4 anti-CD70 ADC (conjugate)
VH: B1 VH
VL: B1 VL
modifications: non-natural residues
notes: chimeric 1F6 (c1F6)-vcMMAF4 anti-CD70 ADC
IC50 values, range over the panel [5]: 1.2 to 160 ng/mL | IC50 values, range over the panel [6]: 0.41 to 42 ng/mL

B3: 1F6: anti-human CD70 monoclonal antibody obtained from the Central Laboratory of the Netherlands Red Cross Blood Transfusion Service (antibody, V domains shown)
VH: B1 VH
VL: B1 VL
modifications: Mature 1F6 Heavy Chain Variable region from Figure 1; Mature 1F6 Light Chain Variable Region from Figure 1
notes: anti-human CD70 monoclonal antibody obtained from the Central Laboratory of the Netherlands Red Cross Blood Transfusion Service
therapeutic activity / tumor growth (Caki-1 tumors): Very little therapeutic activity | effect on tetanus toxoid-induced T cell proliferation [7]: did not show a significant effect

B4: 1F6-vcMMAF: anti-CD70 mAb 1F6 linked to monomethyl auristatin phenylalanine by the valine-citrulline (vc) dipeptide linker (conjugate)
VH: B1 VH
VL: B1 VL
modifications: non-natural residues
notes: anti-CD70 mAb 1F6 linked to monomethyl auristatin phenylalanine by the valine-citrulline (vc) dipeptide linker
IC50 values for proliferation inhibition (CD70^+ RCC lines [1]; CD70^+ RCC lines tested): lower than 30 ng/ml | IC50 values to induce cytotoxicity (CD70^+ RCC lines [8]): lower than 30 ng/ml | CD8^+/Vβ17^+ T cells in the culture ([4]; 1 μg/ml added on day 5, 4 days, untreated 47%): 14% | inhibition of CD8^+/Vβ17^+ T cell expansion ([4]; 96-hour incubation): dose-dependent inhibition | response to anti-CD3 plus anti-CD28 re-stimulation (Vβ17^− T cells): comparable to that of the untreated cells
